Experimental data: patent publication US20260109763A1, “ANTI-PILRA ANTIBODIES, USES THEREOF, AND RELATED METHODS AND REAGENTS” (DENALI THERAPEUTICS INC., priority 2021, published 2026)

Assays:
[1] = target: human PILRA R78 on cells (human) (UniProt Q9UKJ1); experiment: target engagement in brain lysate of human PILRA (R78) BACtg mice, 4 days after dosing; MSD assay, bound versus total PILRA
[2] = target: human PILRA R78 on cells (human) (UniProt Q9UKJ1); experiment: target engagement in brain lysate of human PILRA (R78) BACtg mice, 1 day after dosing; MSD assay, bound versus total PILRA

human PILRA R78 on cells (human), sequence (Q9UKJ1 20-303 limits assumed): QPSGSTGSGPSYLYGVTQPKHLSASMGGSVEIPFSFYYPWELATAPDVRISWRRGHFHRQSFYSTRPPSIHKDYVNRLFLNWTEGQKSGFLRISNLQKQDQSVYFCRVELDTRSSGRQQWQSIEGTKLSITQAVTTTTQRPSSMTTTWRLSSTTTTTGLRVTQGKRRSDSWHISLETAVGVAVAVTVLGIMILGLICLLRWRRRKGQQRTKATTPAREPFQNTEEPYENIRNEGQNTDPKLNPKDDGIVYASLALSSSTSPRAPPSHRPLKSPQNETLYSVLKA

isotype control antibody
percent of brain human PILRA bound, 4 days [1]: 16%
percent of brain human PILRA bound, 1 day [2]: 17%
